Columns and labels:
[1] = Flow cytometry, surface versus total PD-1 staining; conditions: glycan changed form; control: sgNT Tregs
[2] = Flow cytometry, PD-1+ frequency and MFI, ex vivo Tregs; conditions: glycan changed form; control: DMSO-treated Tregs

Protein	localisation_or_trafficking [1]	expression_or_secretion [2]
PD-1: sgSlc35c1 (protein) parent chain: MWVRQVPWSFTWAVLQLSWQSGWLLEVPNGPWRSLTFYPAWLTVSEGANATFTCSLSNWSEDLMLNWNRLSPSNQTEKQAAFCNGLSQPVQDARFQIIQLPNRHDFHMNILDTRRNDSGIYLCGAISLHPKAKIEESPGAELVVTERILETSTRYPSPSPKPEGRFQGMVIGIMSALVGIPVLLLLAWALAVFCSTSMSEARGAGSKDDTLKEEPSAAPVPSVAYEELDFQGREKTPELPTACVHTEYATIVFTEGLGASAMGRRGSADGLQGPRPPRHEDGHCSWPL	decreases	–
PD-1: 2FF 100 μM, 6 days (protein) parent chain: MWVRQVPWSFTWAVLQLSWQSGWLLEVPNGPWRSLTFYPAWLTVSEGANATFTCSLSNWSEDLMLNWNRLSPSNQTEKQAAFCNGLSQPVQDARFQIIQLPNRHDFHMNILDTRRNDSGIYLCGAISLHPKAKIEESPGAELVVTERILETSTRYPSPSPKPEGRFQGMVIGIMSALVGIPVLLLLAWALAVFCSTSMSEARGAGSKDDTLKEEPSAAPVPSVAYEELDFQGREKTPELPTACVHTEYATIVFTEGLGASAMGRRGSADGLQGPRPPRHEDGHCSWPL	–	decreases

Source: publication PMC7615342
